In article PMC3416860, “TC10 Is Regulated by Caveolin in 3T3-L1 Adipocytes” (PLoS ONE, 2012):

Key:
GST-TC10 [1] = target: T1, GST-TC10 (Homo sapiens, UniProt P17081); experiment: radioligand binding to GST-fusion on glutathione-agarose; conditions: 10 mM MgCl2, pH 7.5, room temperature, labelled compound
T1 construct: gene RHOQ; GST fusion (GST kept), expressed in E. coli Rosetta-gami (DE3), glutathione-agarose purified; plasmid from I. Macara

[2] = target: myc-Caveolin 1 wild-type (pKMyc-Caveolin 1) (UniProt Q03135); experiment: co-IP; COS-1 cells co-transfected with myc-Caveolin 1 and HA-TC10 plasmids; lysed in HNTG buffer (50 mM HEPES pH 7.4, 150 mM NaCl, 10% glycerol, 1% Triton X-100); immunoprecipitated with anti-myc antibodies and Protein A/G beads, blotted for HA
GST-TC10 [3] = target: T2, GST-TC10 (human, UniProt P17081 1-205); experiment: pull-down; GST-TC10 on glutathione-agarose beads, preincubated with nucleotides as indicated (GDP or a nonhydrolyzable GTP analog), used to precipitate proteins from a 3T3-L1 adipocyte lysate; blot with anti-Caveolin antibodies; conditions: one partner purified
T2 construct: TC10 (RhoQ); Expression plasmid obtained from Dr. Ian Macara; Used as purified (with endogenous GDP) or preincubated with GDP or a nonhydrolyzable GTP analog; also called TC10-GDP; source: E. coli Rosetta-gami (DE3), purified (glutathione-agarose)
T2 sequence (P17081 whole entry): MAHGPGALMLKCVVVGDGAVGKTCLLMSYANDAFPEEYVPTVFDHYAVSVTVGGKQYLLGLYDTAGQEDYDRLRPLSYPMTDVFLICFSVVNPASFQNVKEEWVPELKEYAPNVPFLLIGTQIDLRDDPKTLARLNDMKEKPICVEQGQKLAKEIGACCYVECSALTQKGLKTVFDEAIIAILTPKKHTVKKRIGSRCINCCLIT

GST-TC10 [4] = target: T2, GST-TC10; experiment: pull-down; purified MBP-Caveolin 1(1-99) and GST-TC10 incubated with GDP overnight at 4 C; glutathione agarose 1 h, washed, eluted in SDS sample buffer; blots with anti-GST or anti-MBP; conditions: both partners purified

T1 sequence (P17081 whole entry, the tested form may be a part): as the sequence (P17081 whole entry) above

## Nc1nc2c(ncn2[C@@H]2O[C@H](COP(=O)(O)OP(=O)(O)OP(O)(O)=S)[C@@H](O)[C@H]2O)c(=O)[nH]1 [GTPγS]
GST-TC10 [1]
  radioligand binding to GST-fusion on glutathione-agarose: incubated radiolabeled GTPγS with recombinant GST, GST-TC10 or GST-Cdc42

## HA-TC10 T31N (pKH3-TC10 T31N), dominant-interfering mutant (natural protein)
[2]
  fold interaction against the constitutively active allele (Q75L): > 10 fold

## HA-TC10 Y37A/Y46A (pKH3-TC10 Y37A/Y46A) (natural protein)
[2]
  percent decrease of co-immunoprecipitation against wild-type TC10: > 75%

B1: Caveolin 1, endogenous in 3T3-L1 adipocytes (natural protein, mouse (endogenous in 3T3-L1), UniProt P49817 1-178, looked up)
chain: MSGGKYVDSEGHLYTVPIREQGNIYKPNNKAMADEVTEKQVYDAHTKEIDLVNRDPKHLNDDVVKIDFEDVIAEPEGTHSFDGIWKASFTTFTVTKYWFYRLLSTIFGIPMALIWGIYFAILSFLHIWAVVPCIKSFLIEIQCISRVYSIYVHTFCDPLFEAIGKIFSNIRISTQKEI
notes: Caveolin 1, endogenous, detected with anti-Caveolin antibodies; source: endogenous, 3T3-L1 adipocyte lysate
GST-TC10 [3]
  fold enhancement of the interaction after GDP binding: ~2 fold

B2: MBP-Caveolin 1(1-99) (domain or fragment, UniProt Q03135 1-99, looked up)
chain: MSGGKYVDSEGHLYTVPIREQGNIYKPNNKAMADELSEKQVYDAHTKEIDLVNRDPKHLNDDVVKIDFEDVIAEPEGTHSFDGIWKASFTTFTVTKYWF
notes: Caveolin 1, the first 99 amino acids; The vector may add further tags and a TEV site; source: E. coli Rosetta-gami (DE3), purified (amylose resin)
GST-TC10 [4]
  fold precipitated with TC10-GDP against GTP analog bound TC10: > 4 fold
